Patent WO2021173674A1

Assays:
[1] = target: HLA-A*02 complexed with MAGE-A12 112-120 (…) on cells; assay: cell-based or functional assay
[2] = target: HLA-A*02 complexed with EPS8L2 339-347 (…) on cells; assay: cell-based or functional assay

potency in Jurkat/T2 cell assays, against the on-target MAGE-A3 peptide [1]: 10 fold
fold decrease in potency in Jurkat/T2 cell assays, against the on-target MAGE-A3 peptide [2]: 500 fold
Substance: A118T TCR (MAGE-A3 112-120 clinical TCR)
EC50 in primary human T cell cytotoxicity on peptide-loaded MCF7 cells, against the on-target EC50 [2]: < 10 fold
